The text below walks through data of the RNAGym collection of RNA variant scans (doi:10.7554/elife.90254).

B1: LINE1-full (parent)
chain: UACGUAGGUGGUUUUCCCCUGAUAGUGCUAAGGGGGCCUGGAAGUUUGGACUGGGCAGAGCUCAACACAGCGUGGCAAAGUGGCUGUGGCUAGACUGCCUCUCUGGAUUCCUCGUCACUCAGCAGGGCAUCUCUGAGAGAAAUGCC
B2: OR4K15 (parent)
chain: GUUAACGGUCAUAGGCCAUGGAAACUAGGAGCACCAUUUCGCUGCCAGUGAAGAAAUGAACAAAGAAAAUCUGGGCCAGGCAGGCAUCAAAAGAAAUAGUCUUGCGCUCAACCAGAAAGUCUGUAAUCAUUUUAAGGGUA

Variants of B1 are the subject of one data set. The data set can be described thus: self-cleavage, relative activity (ratio to wild type); higher = more cleavage; in vitro, sequencing; the parent is a self-cleaving ribozyme.
On to A142C, for which the self-cleavage is 0.53.

As to A142G, the self-cleavage stood at 1.21.

For A142U, the self-cleavage turned out to be 1.22.

Turning to A141G U143C, the self-cleavage stood at 1.31.

For the variant A140U A142G, the self-cleavage was determined as 1.73.

For the variant A138G A141U, the self-cleavage worked out at 1.43.

Consider A138G A141G, for which the self-cleavage stood at 1.25.

As for A141G C146U, the self-cleavage stood at 1.31.

Consider U143A G144A, for which the self-cleavage stood at 1.4.

A141C U143A: the self-cleavage was 1.79.

Consider G137A A138G, for which the self-cleavage came out at 1.38.

As for A140G U143A, the self-cleavage was found to be 0.79.

For the variant G139U A140G, the self-cleavage was found to be 1.23.

As to A136G A140U, the self-cleavage was 1.29.

With G137U U143C, the self-cleavage worked out at 1.04.

A141G A142U: the self-cleavage was 1.36.

Take A141G A142G: the self-cleavage turned out to be 1.45.

A138G C146U: the self-cleavage is 1.32.

Consider A140U, for which the self-cleavage came out at 1.26.

For the variant A140G, the self-cleavage came to 1.07.

Turning to A140C, the self-cleavage amounted to 0.65.

Regarding A140C A141G, the self-cleavage turned out to be 0.41.

For the variant A138G A142G, the self-cleavage is 1.39.

Consider U143A C145U, for which the self-cleavage was determined as 1.39.

On to A138G U143A, for which the self-cleavage turned out to be 1.45.

Take C145A: the self-cleavage turned out to be 0.95.

Regarding C145G, the self-cleavage is 0.55.

On to C145U, for which the self-cleavage turned out to be 1.32.

For the variant A142G C145U, the self-cleavage stood at 1.11.

Take A136U A138U: the self-cleavage was determined as 0.99.

Turning to A140G A141G, the self-cleavage is 0.53.

Take A140G C145U: the self-cleavage is 0.62.

For A140G C145A, the self-cleavage is 1.28.

On to A140G G144A, for which the self-cleavage was 0.92.

Take A136U: the self-cleavage worked out at 1.23.

As for A141U U143A, the self-cleavage was 0.6.

Take A140U C145U: the self-cleavage is 1.63.

A136U A142G: the self-cleavage stood at 1.52.

With U143C G144A, the self-cleavage stood at 2.03.

For A140G A142C, the self-cleavage stood at 1.4.

Consider A140G A142G, for which the self-cleavage was found to be 1.17.

As for A141U A142G, the self-cleavage is 1.79.

A138U A142C: the self-cleavage was determined as 2.14.

Take A136G U143C: the self-cleavage was found to be 1.47.

For the variant A142G U143G, the self-cleavage is 0.16.

Take A136G A142C: the self-cleavage was 1.08.

For the variant A138U A140G, the self-cleavage came to 1.2.

Turning to G139A, the self-cleavage was 0.89.

As to G139U, the self-cleavage is 1.31.

Consider G139C, for which the self-cleavage is 1.53.

As for G139A A141G, the self-cleavage amounted to 1.58.

Take A141C A142C: the self-cleavage was found to be 0.71.

As for A138U U143G, the self-cleavage came to 1.5.

For the variant A138U U143C, the self-cleavage came out at 1.23.

In the next data set the parent is B2. The data set is described as above.
For the variant U2A A117G, the self-cleavage stood at 0.59.

Regarding U2A A117U, the self-cleavage stood at 0.49.

Consider G1A A114U, for which the self-cleavage is 0.26.

With G1A A114G, the self-cleavage came out at 1.32.

U2C A23U: the self-cleavage was 1.22.

In the case of G1U A54G, the self-cleavage turned out to be 1.44.

In the case of U2C A24C, the self-cleavage is 1.16.

As to U2C A24U, the self-cleavage worked out at 1.45.

Consider U2A A56G, for which the self-cleavage amounted to 0.89.

As to U2A A134G, the self-cleavage was 1.65.

With U2A U37C, the self-cleavage amounted to 1.34.

With U2C A114U, the self-cleavage turned out to be 0.09.

For U2C A78G, the self-cleavage stood at 0.21.

In the case of G1A, the self-cleavage came out at 1.55.

Take G1U: the self-cleavage was found to be 1.07.

U2A A47G: the self-cleavage turned out to be 1.42.

Regarding U2A A47U, the self-cleavage stood at 0.78.

For U2C A64G, the self-cleavage stood at 1.48.

G1U A63G: the self-cleavage amounted to 0.92.

For the variant G1U A95G, the self-cleavage worked out at 0.56.

On to U2C A94U, for which the self-cleavage was determined as 1.48.

Consider U2C A94G, for which the self-cleavage is 1.08.

As for U2C A111G, the self-cleavage amounted to 0.04.

Regarding U2A A95G, the self-cleavage was 1.21.

U2A A95U: the self-cleavage came out at 0.86.

Turning to U2A U49A, the self-cleavage was 1.64.

Consider U2C A11G, for which the self-cleavage is 1.16.

In the case of G1U A94G, the self-cleavage turned out to be 0.76.

G1A U37C: the self-cleavage came to 1.61.

On to G1A A59G, for which the self-cleavage was determined as 1.36.

As to U2A G44C, the self-cleavage turned out to be 0.79.

Consider G1U A52G, for which the self-cleavage was determined as 1.83.

Regarding U2C A126G, the self-cleavage was found to be 1.22.

In the case of U2A U12C, the self-cleavage worked out at 1.41.

For U2A A114U, the self-cleavage is 0.33.

U2C A91G: the self-cleavage was 1.08.

On to U2C A91U, for which the self-cleavage was determined as 0.81.

Turning to U2C A63G, the self-cleavage came out at 1.12.

With U2C A36G, the self-cleavage was 1.25.

Take U2C A36U: the self-cleavage is 1.11.

For U2C A116G, the self-cleavage stood at 0.6.

With U2C A27G, the self-cleavage came out at 0.85.

Regarding G1A U43C, the self-cleavage turned out to be 2.15.

For the variant G1U A69U, the self-cleavage stood at 1.22.

On to U2A A64G, for which the self-cleavage is 1.24.

In the case of U2A A116U, the self-cleavage was found to be 0.18.

U2A A116G: the self-cleavage was found to be 0.75.

As to U2A U57C, the self-cleavage is 0.92.

With G1U A92G, the self-cleavage was 1.91.

As to U2A A51G, the self-cleavage came out at 0.51.

Take U2A A63U: the self-cleavage was found to be 1.62.

On to U2A A89G, for which the self-cleavage was 1.07.

Consider U2C A56G, for which the self-cleavage was found to be 1.12.

For the variant U2C A5U, the self-cleavage came out at 1.16.

On to U2C A33G, for which the self-cleavage amounted to 0.74.

U2C A33U: the self-cleavage was 1.24.

Take U2A A69G: the self-cleavage amounted to 1.62.

As for U2C A118U, the self-cleavage amounted to 0.44.

For the variant U2C A118G, the self-cleavage is 0.88.

Consider G1A U102G, for which the self-cleavage amounted to 1.23.

As to U2A U139G, the self-cleavage turned out to be 0.81.

For the variant U2A U139A, the self-cleavage stood at 1.04.

Take U2C A66U: the self-cleavage came to 0.2.

For U2C A66G, the self-cleavage turned out to be 1.45.

Take U2A U9C: the self-cleavage was 1.52.

Consider U2A A23U, for which the self-cleavage was found to be 1.24.

Consider U2C A52G, for which the self-cleavage is 1.19.

Regarding U2C A52C, the self-cleavage came to 1.25.

In the case of U2C A13U, the self-cleavage came out at 1.78.

Regarding U2A A90U, the self-cleavage turned out to be 1.25.

For G1C A135G, the self-cleavage amounted to 1.85.

Turning to U2A A98G, the self-cleavage stood at 0.1.

On to U2A U38C, for which the self-cleavage was found to be 1.82.

On to U2C A18U, for which the self-cleavage was 0.37.

In the case of U2C A18G, the self-cleavage was 0.6.

For U2A U122C, the self-cleavage amounted to 0.72.

Take U2A A91G: the self-cleavage amounted to 0.7.

Turning to U2A A126G, the self-cleavage came out at 0.81.

For U2A U39C, the self-cleavage amounted to 1.26.

Consider U2C A69G, for which the self-cleavage was found to be 0.91.

For U2A A62G, the self-cleavage came to 1.23.

On to U2A U130C, for which the self-cleavage worked out at 0.85.

On to U2A A68G, for which the self-cleavage was determined as 0.8.

Turning to U2A A68U, the self-cleavage came out at 0.46.

Take U2C A117U: the self-cleavage is 1.05.

Consider U2A U70C, for which the self-cleavage worked out at 0.67.

As to U2A C10U, the self-cleavage turned out to be 0.88.

Turning to U2C A30U, the self-cleavage worked out at 0.98.

As to U2C A30C, the self-cleavage turned out to be 1.44.

For the variant U2A G65A, the self-cleavage worked out at 0.89.

Turning to U2A U131C, the self-cleavage was determined as 0.69.

U2C A62G: the self-cleavage is 0.36.

Take U2C A62C: the self-cleavage came to 1.39.

Consider U2C A96C, for which the self-cleavage worked out at 1.85.

With U2A A60C, the self-cleavage turned out to be 1.97.

Take U2A A60G: the self-cleavage was determined as 1.13.

G1C A111G: the self-cleavage came to 0.01.

Take U2A A18U: the self-cleavage was found to be 1.37.

For U2A U102C, the self-cleavage came to 1.15.

Consider G1A A13C, for which the self-cleavage stood at 1.66.

G1A A13G: the self-cleavage was 1.29.

On to U2C A59G, for which the self-cleavage is 0.91.

As to U2C A59U, the self-cleavage was 0.98.

With U2C A90G, the self-cleavage was 0.54.

Turning to U2C A90C, the self-cleavage amounted to 1.23.

U2A A22G: the self-cleavage came out at 1.33.

For the variant U2A U43C, the self-cleavage worked out at 0.84.

For the variant G1U U139C, the self-cleavage was 0.98.

With U2C A60G, the self-cleavage came out at 1.02.

For the variant G1A A64G, the self-cleavage turned out to be 2.27.

With G1C A91G, the self-cleavage was 0.65.

In the case of U2A A54G, the self-cleavage stood at 0.63.

Take U2A U72C: the self-cleavage came out at 0.48.
